Measured values taken from the DeepSol protein solubility set.

Assay: soluble on expression in E. coli; label from the status in PepcDB or PDB records

Row | Sequence | soluble on expression in E. coli
1 | MGSDKIHHHHHHMPRPFRLSCALLHEPVSSNLMDLKYGDTSFSLAIPPERLMGVIRPSVPAPDSDPAAIISEALDRCADAIATFRTGERVVIVTSDITRYTGSEIYLPLLVERLAAAGVRERDIEIVVALGIHRKQTEHEHQRITGPLYGRIRITDHECDNPGKLVLIGRTSTGVDVVVNRTVAEADRVILTGTIGFHYFAGFGGGRKSILPGVAGRASCMASHYAVLNPGEGTGRNPLATTGNLEGNPVHQTMVEACAMVNPEFILNTVLSPAKRIIAAFAGHWREAHEEGCRFYADRFSFPLKKPADLVVVSCGGYPKDINVIQSHKSMEYGCQALRRGGVMVLLAQCRDGYGNATFFDWFRFRELDAFEARLRSHYEINGQTAFSLLQKARTFSIILVSDLPPEEVRTMGMTPARTLDEAMTAAASLLPSDYTAYVVPEGGTVLPIMM | not soluble
2 | MGSDKIHHHHHHDPLESMNRGIYKFNDTADKAVLKPIAGAYKAVLPSPIRTGVNNFFTNLGTFTSLVNNILQLELGKAMDNTGRLLINSTIGIGGLVDVASMDGVPNHRADFGQTLGKWGVGSGAYLVLPFLGPSTLRDTAGLTIDTLYFDPIQYTNHVRERNQLRMLSFIDLRSQYLPASDLIDDAALDPYIFMREAYLERRHQFVTGEASSFDDFDDDDEEVTPPEPQ | not soluble
3 | MQSQRAYELIKAEIFKRLGVNRTDAYKDSYLQRRIRARMRKLGISDYMEYYKILKSNKEEFEELLLTIAINVTEFFRDPIVWKTFQNKILPELVQFKKSKGFRSIKIWSAACSTGQEPYSIAMTLYEVLGENLGGFRVSILATDIDKEALQIAMRGEYPVDAVEKQVPRHMIYKYFDRISEERYRIKPHVKRLVTFRWFNLLSSIYPKGFDVIFIRNVLIYMSKEAQEDIFRKLYDSLEDHGYLILGKTETILGRSANLFKLYDLVAKVYKKNLGVKGNG | soluble
4 | MFTYSLNLKLKTDRNFFGPGVVEVLQKIQQTGSLNLAAKEMKMSYNKAWRIVRVAEEELSFPLIIKSVGGCNGGGSIVTDQGKELIDQYLLFEKKVYQQVEACFEEIFKEQDVVSEELK | not soluble
5 | MADVATKHPMEDEVKKTEASSLVGKLETDVEIKASADKFHHMFAGKPHHVSKASPGNIQGCDLHEGDWGTVGSIVFWNYVHDGEAKVAKERIEAVEPDKNLITFRVIEGDLMKEYKSFLLTIQVTPKPGGPGSIVHWHLEYEKISEEVAHPETLLQFCVEVSKEIDEHLLAEEEEVKTPETPSLVGKLETDVEIKASAEKFHHMFAGKPHHVSKASPGNIQGCDLHEGDWGQVGSIVFWNYVHGKEAKVAKERIEAVEPNKNLITFRVIDGDLMKEYKSFLLTIQVTPKLGGPGSIVHWHLEYEKISEEVAHPETLLQFCVEVSKEIDEHLLAEE | soluble
6 | GPGSMTEYKKLCAILAQLREEVTSLSCAFEGGEGQDTVALHSLSTSIQKLVTNAQPRLLKILRKATETDPNRQIYNEAMCAAIKQLFDDFCELLSCLFGVPMEEMVLSEGKINFEDSPSISWTEDVHNNYLLHLAQTEAWKKRIATNIADLVLFEEETRTVYFAEERKARETLLQIKRNEKTNILHMLKEREAAKWEAEVRRRNDEHKGLMNASSFYGVQNIATVLLRIPEPFRKLLAGNMAQLVRALRTTPEDPNIRRIRCNNRRVMMDYSHVVFCGECETCRILVAAAEILWYIMGYRVEYSTAPTSSLRTVIENNPPILLPCGRYASEHAIAVIGFEEYSERFFTLHEPDPMQDSDEWMVWYATLEALLARLEDCLV | not soluble
7 | MDTMAKINQFRDERNWRPHHNEKDLALSICLEAAELLELFQWKTAEEGIKQEERIKEELADVLIYSYMMADNLGFDLDEIIEEKLKKNALKYPVPH | not soluble
8 | GSKCKCSRKGPKIRYSDVKKLEMKPKYPHCEEKMVIITTKSVSRYRGQEHCLHPKLQSTKRFIKWYNAWNEKRRVYEE | soluble
9 | MGSDKIHHHHHHMKKLRKIIEINEELCNGCGQCISACAESALALVNGKARVVSDNLCDGLGTCIGECPTGALKIVEREAEEFDAQAVEIARSCPSTRMVMTFTAGTPSSEARPSALSHWPVKIRLIPENAPFLKGADLLVVADCVPVAFSDLHGRFLPGKVVMAGCPKFDEAQPYIEKFAGIFHNAGIRRVTVLTMEVPCCSGLPILVRKGMELAGVRVPMEVAVISTRGEILDKTA | not soluble
10 | MGSDKIHHHHHHMLRKSLILVLTGALTGLFSSISQGAETLSVATDAIAADFYPATQAGPQYGVLVLGGAEGGKPESLAKAIAHEGHPVLSLAYFNDKGLPQELEQIPLEYFAKAKVWLLNQANVRQDGLILVGWSKGAELSLLLASQDPLFSKVVAIAPSSVIWAGFLKDWTKTPSSSWTQGGKALDFVPFRPTGEVKGLLDLYSQSLQNAKAGQGRIPVENIKGDVVLLTGSNDEIWPSNLMAKALCQRMDTAGTQGSCTHINFEGLDHLLGEKFLDSNDAMHKQFMGFLEAE | not soluble
11 | MAHHHHHHMTNLNVESGYFNDELKEEANEANFMYTNISMLIRAHRKDRNKLTLQNKKLNLIKIVGFVLAIEEKKEFIVYTVDDSTGYIKAKLLLTYSYSACNDKNEDIKVDDMVQIFGICNTVSINEDLTISISSINKVNSLNHLCHHHLLVFHNYLKFLETQKKNLALEDERAKNEEDEIAPHVPTNDNPFFNSFFY | not soluble
12 | AHHHHHHGSKVEGFVASLRNAETIDDLFAILKKKGAPVVEFDGMKKLVIVEGDFEGEKFWTEINGAKANLALGDAMLNAASVPFKCKRDFTGGNLILLDFDSIESNEFLIAYVSEKSGVYFHVKAEEVKEITKEEYDELKDRMPEFKAKSYSEEEMEGMGAFFG | soluble
13 | MGHHHHHHSHMPLLVEGRRVRLPQSAGDLVRAHPPLEERARLLRGQSVQQVGPQGLLYVQQRELAVTSPKDGSISILGSDDATTCHIVVLRHTGNGATCLTHCDGTDTKAEVPLIMNSIKSFSDHAQCGRLEVHLVGGFSDDRQLSQKLTHQLLSEFDRQEDDIHLVTLCVTELNDREENENHFPVIYGIAVNIKTAEIYRASFQDRGPEEQLRAARTLAGGPMISIYDAETEQLRIGPYSWTPFPHVDFWLHQDDKQILENLSTSPLAEPPHFVEHIRSTLMFLKKHPSPAHTLFSGNKALLYKKNEDGLWEKISSPGS | not soluble
14 | MKELHTSELVEVSGGKFHIFAQGGGNLGKKDMVAVGKIGASYSPNNSGVEFSVSKQFGYVQGLGVQFSKPTFGISKKW | not soluble
15 | MAIPYVVRKKADLTSGERKELWYGVPSKIQDRGGVQNKELAQVVELRGGFHRGQVEGILVEVADAIRYLLSMGQSVTIDGLGTFQTALTSPGFERPEQVTPGQVSVSRVYFVANSALRDRMKKTKCMRIPFKYYMSESMLTKEMKKADQEQEQTEE | not soluble
16 | SAARLLRGSLRVLGGHRAPRQLPAARCSHSGGEERLETPSAKKLTDIGIRRIFSPEHDIFRKSVRKFFQEEVIPHHSEWEKAGEVSREVWEKAGKQGLLGVNIAEHLGGIGGDLYSAAIVWEEQAYSNCSGPGFSIHSGIVMSYITNHGSEEQIKHFIPQMTAGKCIGAIAMTEPGAGSDLQGIKTNAKKDGSDWILNGSKVFISNGSLSDVVIVVAVTNHEAPSPAHGISLFLVENGMKGFIKGRKLHKMGLKAQDTAELFFEDIRLPASALLGEENKGFYYIMKELPQERLLIADVAISASEFMFEETRNYVKQRKAFGKTVAHLQTVQHKLAELKTHICVTRAFVDNCLQLHEAKRLDSATACMAKYWASELQNSVAYDCVQLHGGWGYMWEYPIAKAYVDARVQPIYGGTNEIMKELIAREIVFDK | soluble
17 | GSSIFDIYVVTADYLPLGAEQDAITLREGQYVEVLDAAHPLRWLVRTKPTKSSPSRQGWVSPAYLDRRLKL | soluble
18 | MGHHHHHHSHMKAEGKKPISKIPKKGFVEVTELTDVTYTSNLVRLRPGHMNVVLILSNSTKTSLLQKFALEVYTFTGSSCLHFSFLSLDKHREWLEYLLEFAQDAAPIPNQYDKHFMERDYTGYVLALNGHKKYFCLFKPQKTVEEEEAIGSCSDVDSSLYLGESRGKPSCGLGSRPIKGKLSKLSLWMERLLEGSLQRFYIPSWPELD | not soluble
